Experiments:
[1] = Indirect calorimetry: VO2, VCO2, EE, RER (METABOpack sessions); assay type: in vivo, CD-1 mice
Experimental: The Physiocage System allows recording the O2 consumption (VO2) and the CO2 production (VCO2) by indirect calorimetry. For each animal, both VO2 and VCO2 were recorded for 3 min every 30 minutes and the mean values were calculated by the system.
Energy Expenditure (EE) and Respiratory Exchange Ratio (RER) were calculated with formulas that are based on VO2 and VCO2 values: […]
Analysis of these parameters was performed as follows: for each mouse, the mean values were calculated from the corresponding recordings for each nycthemeral phase (Diurnal Phase or DP, Nocturnal Phase or NP and Whole day or WD). The means per nycthemeral phase were then calculated for each group for statistical comparisons.

[2] = Body weight of CD-1 mice, 4-week SC treatment; assay type: in vivo
Experimental: Detailed Methods: Adult male CD-1 mice at 6 weeks of age at receipt (with an expected weight of 35-39 g) were purchased from Charles River (St Germain sur l'Arbresle, France). From receipt, mice were singly housed and allowed ad libitum access to water and to a control diet (pellet A04; SAFE, Villemoisson-sur-Orge, France), unless otherwise noted (see Section D.). Throughout the study, animals were maintained in an ambient temperature (22.0±1.0° C.) and humidity (40-50%) controlled room on a 12-h light/12-h dark cycle (9:00 PM: Light ON/9:00 AM Light OFF).
At receipt and until the end of the experiment, all animals fed the control diet (A04 pellet). Following the acclimation and habituation periods, forty-eight (48) mice were subcutaneously treated either with vehicle, liraglutide (as the benchmark) or 89BIO-100 (3 different doses tested).
From T1 to T28, vehicle and 89BIO100 (at the 3 different doses) were administrated by subcutaneous (SC) injection three times a week, while the treatment with liraglutide was administrated by subcutaneous route, twice a day, every day. It was important to notice that the first dosing was done just before the […] (at 9:00 AM) and the second dosing was done 8 hours after the first one (at 5:00 PM). Throughout the treatment period, FI and BW were daily measured.
(§1) General Methods: Naive CD-1 mice were treated subcutaneously (SC) for 4 weeks at ambient temperature with BIO89-100 at doses of 0, 0.3, 1.0 and 3.0 mg/kg (3qW×4 weeks) or with liraglutide at 0.2 mg/kg (BID×4 W; SC). BW and FC were measured daily throughout the treatment period. To investigate the impact of BIO89-100 on energy expenditure, the respiratory exchanges (VO2 and VCO2) were recorded during 3 distinct sessions of METABOpack™, a multiparametric approach allowing an automated and simultaneous recording of FC, water intake, respiratory exchanges and spontaneous activity. Meal pattern analysis was conducted on the high-resolution recordings of FC. The body composition (fat, lean and fluid masses) was analyzed 3 times during the study by the mean of Time-Domain Nuclear Magnetic Resonance (TD-NMR).

[3] = Body composition (minispec Analyzer, TD-NMR); assay type: in vivo, CD-1 mice
Experimental: For body composition analyses, a minispec Analyzer (LF90II, Bruker, Germany) was used. The LF90II provides an accurate measure of the whole-body lean mass, fat mass and free fluid mass in living and vigil animals.
Body composition was measured using a minispec Analyzer (LF90II, Bruker, Germany) one (1) day before treatment start on habituation day 7 (H7) and on treatment day 13 (T13) and treatment day 25 (T25) of Treatment days. Briefly, each mouse was placed in a red clear plastic tube sealed by a plunger. Then, the tube was inserted into the minispec Analyzer for measurement of body composition (˜ 2 min/measurement). Once the measurement completed, the mouse was removed from the plastic tube and immediately replaced into its cage. The tube and the plunger were washed and dried between each mouse. As a reminder, the Minispec analyser allows fast and precise measurements of fat tissue (g) (adipose tissue), lean tissue (g) (mainly muscles) and free fluid content (g). It should be noted that each measurement was performed just prior to a METABOpack™ session in order to normalize the respiratory exchanges-related parameters of each mouse by its lean mass (see METABOpack™ session section).
as §1

[4] = T1, whatever the dose, vs vehicle
[5] = T2, DP and WD, whatever the dose, vs Liraglutide
[6] = T2, whatever the dose, vs vehicle
[7] = T14, DP, 3 mg/kg, vs Liraglutide
[8] = T14, NP and WD, whatever the dose, vs Liraglutide
[9] = T14, NP and WD, whatever the dose, vs vehicle
[10] = T14, between the three 89BIO-100 groups
[11] = T15, NP and WD, 1 and 3 mg/kg, vs vehicle
[12] = T15, between the three 89BIO-100 groups
[13] = T15, whatever the phase, 1 and 3 mg/kg, vs Liraglutide
[14] = T27, NP, whatever the dose, vs vehicle
[15] = T27, WD, 0.3 and 1 mg/kg, vs Liraglutide
[16] = T27, WD, 0.3 and 1 mg/kg, vs vehicle
[17] = T27, between the three 89BIO-100 groups
[18] = BIO89-100-treated CD-1 mice, overall
[19] = T13, three doses, vs Liraglutide

B1: Mutant FGF21-GalNAc-SA-PEG-20 kDa (conjugate)
chain: MHPIPDSSPLLQFGGQVRQRYLYTDDAQQTEAHLEIREDGTVGGAADQSPESLLQLKALKPGVIQILGVKTSRFLCQRPDGALYGSLHFDPEACSFRELLLEDGYNVYQSEAHGLPLHLPGNKSPHRDPAPRGPARFLPLPGLPPALPEPPGILAPQPPDVGSSDPLSMVGPTQGASPSYAS
[1]; T1, NP and WD, whatever the dose, vs Liraglutide
  RER: increase in RER
[1]; T1, NP, whatever the dose, vs Liraglutide
  VCO2: increase in VCO2
[1]; T1, between 89BIO-100 groups
  RER: no significant difference
[1]; T1, between all 89BIO-100 groups
  VCO2: no significant difference
[1]; [4]
  RER: No significant difference
  VCO2: No significant difference
[1]; [5]
  EE: increase in EE
  VO2: increase in VO2
[1]; T2, between 89BIO-100 groups
  EE: no significant difference
[1]; T2, between the three 89BIO-100 groups
  VO2: no significant difference
[1]; [6]
  EE: No significant difference
  VO2: No significant difference
[1]; [7]
  EE: increased
  VO2: increased
[1]; T14, DP, 3 mg/kg, vs vehicle
  EE: increased
  VO2: increased
[1]; [8]
  EE: increase in EE
  RER: decrease in RER
  VO2: increase in VO2
[1]; [9]
  EE: increased
  VO2: increased
[1]; T14, NP, whatever the dose, vs Liraglutide
  VCO2: increase in VCO2
[1]; T14, NP, whatever the dose, vs vehicle
  VCO2: increased
[1]; T14, WD, 1 and 3 mg/kg, vs Liraglutide
  VCO2: increased
[1]; T14, WD, 1 and 3 mg/kg, vs vehicle
  VCO2: increased
[1]; [10]
  EE: no significant difference
  VCO2: no significant difference
  VO2: no significant difference
[1]; T14, whatever the dose, vs vehicle
  RER: No significant difference
[1]; T15, DP, 1 mg/kg, vs vehicle
  EE: increased
  VCO2: increased
  VO2: increased
[1]; [11]
  EE: increased
  VCO2: increased
  VO2: increased
[1]; [12]
  EE: no significant difference
  VCO2: no significant difference
  VO2: no significant difference
[1]; [13]
  EE: increase in EE
  VCO2: increase in VCO2
  VO2: increase in VO2
[1]; T27, NP and WD, 0.3 and 1 mg/kg, vs vehicle
  VCO2: increased
[1]; T27, NP and WD, dose of 1, vs Liraglutide
  VCO2: increase in VCO2
[1]; T27, NP, 1 and 3 mg/kg, vs Liraglutide
  VO2: increase in VO2
[1]; T27, NP, dose of 1, vs Liraglutide
  EE: increase in EE
[1]; [14]
  EE: increased
  VO2: increased
[1]; [15]
  EE: increased
  VO2: increase in VO2
[1]; [16]
  EE: increased
  VO2: increased
[1]; [17]
  EE: no significant difference
  VCO2: no significant difference
  VO2: no significant difference
[1]; concluded from energy expenditure effects
  thermogenesis: increased
[1]; summary, second (T14/T15) and third (T27) METABOpack session, vs Vehicle
  energy expenditure: increase in energy expenditure
[2]; 0.3 mg/kg, vs Liraglutide, T2-T11, T13-T16
  delta body weight: increase in delta body weight
[2]; 0.3 mg/kg, vs Liraglutide, T2-T24 and T26
  body weight: greater body weight
[2]; 0.3 mg/kg, vs vehicle, T3-T6
  delta body weight: increase in delta body weight
[2]; 1 mg/kg, vs 0.3 mg/kg, T6-T21
  delta body weight: significant decrease in delta body weight
[2]; 1 mg/kg, vs Liraglutide, T2-T5
  body weight: greater body weight
[2]; 1 mg/kg, vs vehicle, T8-T21, T23, T24
  delta body weight: marked decrease in delta body weight
[2]; 3 mg/kg, vs 0.3 mg/kg, T5-T28
  delta body weight: marked decrease in delta body weight
[2]; 3 mg/kg, vs 1 mg/kg, T11, T12, T13, T15
  delta body weight: significant decrease in delta body weight
[2]; 3 mg/kg, vs 0.3 and 1 mg/kg, over treatment period
  body weight: reduced the body weight
[2]; 3 mg/kg, vs Liraglutide, T8-T13 and T25
  delta body weight: significant decrease in delta body weight
[2]; 3 mg/kg, vs Liraglutide, T11-T13
  body weight: lower body weight
[2]; 3 mg/kg, vs vehicle, T3 and T6-T28
  delta body weight: marked decrease in delta body weight
[2]; 3 mg/kg, vs vehicle, except T2, T3, T4
  body weight: lower body weight
[2]; 0.3 and 1 mg/kg, vs vehicle
  body weight: did not show any difference in body weight
[2]; 1 and 3 mg/kg, throughout treatment period (summary)
  body weight: lower body weight in dose-dependent manner
[2]; 1 and 3 mg/kg, vs Liraglutide, T2-T4
  delta body weight: increase in delta body weight
[2]; naive CD-1 mice, 0.3-3.0 mg/kg SC 3qW x 4 weeks, dose-dependent, up to
  decrease in BW: up to −13.8%
[3]; [18]
  fat mass: marked decrease in fat mass
  lean masses and body fluid: without affecting
[3]; T13, 3 mg/kg, vs 0.3 mg/kg
  fat mass (g): significantly decreased
  fluid mass (g): significantly decreased
[3]; T13, 3 mg/kg, vs 0.3 and 1 mg/kg
  lean mass (g): reduction in lean mass
[3]; T13, 3 mg/kg, vs vehicle
  fluid mass (g): significantly decreased
  lean mass (g): significantly decreased
[3]; T13, 1 and 3 mg/kg, vs vehicle
  fat mass (g): reduction in fat mass
[3]; [19]
  fat mass (g): No significant difference
  fluid mass (g): No significant difference
  lean mass (g): No significant difference
[3]; T25, 1 and 3 mg/kg, vs vehicle
  fat mass (g): reduction in fat mass
[3]; T25, three doses, vs Liraglutide
  fat mass (g): No significant difference
[3]; T25 minus H7, 1 and 3 mg/kg, vs vehicle and Liraglutide
  delta fat mass (g): lower

From patent US20230090114A1, “METHODS FOR PROMOTING WEIGHT LOSS” (89BIO LTD., priority 2020, published 2023)
